Test results: patent US20260167721A1 (ABLEXIS, published 2026)

B1: CD3 × CD33-BspAb85 (bispecific antibody)
chain 1: EVQLVESGGGLVKPGGSLRLSCAASGFTFSSYSMNWVRQAPGKCLEWVSSISRSSGYIFYADSVKGRFTISRDNAKNSLYLQMNSLRAEDTAVYYCVRERVGAGFDYWGQGTLVTVSSGGGGSGGGGSGGGGSGGGGSNFMLTQPHSVSESPGKTVAISCTRSSGSIASNYVQWYQQRPGSSPTAVIYEDNQRPSGVPDRFSGSIDSSSNSAFLTISGLKTEDEADYYCQSYDSSNRVFGCGTKLTVLDKTHTCPPCPAPEFEGGPSVFLFPPKPKDTLMISRTPEVTCVVVDVSHEDPEVKFNWYVDGVEVHNAKTKPREEQYNSTYRVVSVLTVLHQDWLNGKEYKCKVSNKALPASIEKTISKAKGQPREPQVYTLPPCREEMTKNQVSLWCLVKGFYPSDIAVEWESNGQPENNYKTTPPVLDSDGSFFLYSKLTVDKSRWQQGNVFSCSVMHEALHNHYTQKSLSLSPGK
chain 2: EVQLVQSGAEVKKPGSSVKVSCKASGYTITDSNIHWVRQAPGQSLEWIGYIYPYNGGTDYNQKFKNRATLTVDNPTNTAYMELSSLRSEDTAFYYCVNGNPWLAYWGQGTLVTVSSASTKGPSVFPLAPSSKSTSGGTAALGCLVKDYFPEPVTVSWNSGALTSGVHTFPAVLQSSGLYSLSSVVTVPSSSLGTQTYICNVNHKPSNTKVDKRVEPKSCDKTHTCPPCPAPEFEGGPSVFLFPPKPKDTLMISRTPEVTCVVVDVSHEDPEVKFNWYVDGVEVHNAKTKPREEQYNSTYRVVSVLTVLHQDWLNGKEYKCKVSNKALPASIEKTISKAKGQPREPQVCTLPPSREEMTKNQVSLSCAVKGFYPSDIAVEWESNGQPENNYKTTPPVLDSDGSFFLVSKLTVDKSRWQQGNVFSCSVMHEALHNRFTQKSLSLSPGK
chain 3: DIQLTQSPSTLSASVGDRVTITCRASESLDNYGIRFLTWFQQKPGKAPKLLMYAASNQGSGVPSRFSGSGSGTEFTLTISSLQPDDFATYYCQQTKEVPWSFGQGTKVEVKRTVAAPSVFIFPPSDEQLKSGTASVVCLLNNFYPREAKVQWKVDNALQSGNSQESVTEQDSKDSTYSLSSTLTLSKADYEKHKVYACEVTHQGLSSPVTKSFNRGEC
B2: CD3 × CD33-BspAb90 (bispecific antibody)
chain 1: not shown
chain 2: B1 chain 2
chain 3: B1 chain 3
B3: CD3 × CD33-BspAb86 (bispecific antibody)
chain 1: EVQLVESGGGLVKPGGSLRLSCAASGFTFSSYSMNWVRQAPGKCLEWVSSISRSGTYIYYADSVKGRFTISRDNAKNSLYLQMNSLRAEDTAVYYCARERWELLYFDYWGQGTLVTVSSGGGGSGGGGSGGGGSGGGGSQTVVTQEPSLTVSPGGTVTLTCASSTGAVTSGYYPNWFQQKPGQAPRALIYSTSNKHSWTPARFSGSLLGGKAALTLSGVQPEDEAEYYCLLYYGGAYVFGCGTKVTVLDKTHTCPPCPAPEFEGGPSVFLFPPKPKDTLMISRTPEVTCVVVDVSHEDPEVKFNWYVDGVEVHNAKTKPREEQYNSTYRVVSVLTVLHQDWLNGKEYKCKVSNKALPASIEKTISKAKGQPREPQVYTLPPCREEMTKNQVSLWCLVKGFYPSDIAVEWESNGQPENNYKTTPPVLDSDGSFFLYSKLTVDKSRWQQGNVFSCSVMHEALHNHYTQKSLSLSPGK
chain 2: B1 chain 2
chain 3: B1 chain 3
B4: CD3 × CD33-BspAb94 (bispecific antibody)
chain 1: NFMLTQPHSVSESPGKTVTISCTRSSGSIASNYVQWYQQRPGSSPTTVIYEDNQRPSGVPDRFSGSIDSSSNSASLTISGLKTEDEADYYCQSYDSSNRVFGCGTKLTVLGGGGSGGGGSGGGGSGGGGSEVQLVESGGGLVKPGGSLRLSCAASGFTFSSYTMNWVRQAPGKCLEWVSSITTSSSYIYYADSVKGRFTISRDNAKNSLYLQMNSLRAEDTAVYYCARVTFDAFDIWGQGTMVTVSSDKTHTCPPCPAPEFEGGPSVFLFPPKPKDTLMISRTPEVTCVVVDVSHEDPEVKFNWYVDGVEVHNAKTKPREEQYNSTYRVVSVLTVLHQDWLNGKEYKCKVSNKALPASIEKTISKAKGQPREPQVYTLPPCREEMTKNQVSLWCLVKGFYPSDIAVEWESNGQPENNYKTTPPVLDSDGSFFLYSKLTVDKSRWQQGNVFSCSVMHEALHNHYTQKSLSLSPGK
chain 2: B1 chain 2
chain 3: B1 chain 3

target: T1, CD3 on human donor PBMC / Pan T effector cells (human, UniProt P07766 23-207; P09693 23-182; P04234 22-171; P20963 22-164); assay: cell-based or functional assay
T1 sequence (P07766 23-207, chain 1 of 4): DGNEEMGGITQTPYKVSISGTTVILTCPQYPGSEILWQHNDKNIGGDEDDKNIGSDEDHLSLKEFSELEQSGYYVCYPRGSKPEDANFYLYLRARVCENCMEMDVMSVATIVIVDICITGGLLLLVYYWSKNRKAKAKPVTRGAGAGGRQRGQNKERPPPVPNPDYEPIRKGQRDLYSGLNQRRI
T1 sequence (P09693 23-182, chain 2 of 4): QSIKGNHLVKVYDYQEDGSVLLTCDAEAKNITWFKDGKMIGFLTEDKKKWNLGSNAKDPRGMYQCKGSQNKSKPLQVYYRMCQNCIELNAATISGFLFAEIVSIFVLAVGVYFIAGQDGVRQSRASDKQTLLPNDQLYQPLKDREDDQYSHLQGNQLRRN
T1 sequence (P04234 22-171, chain 3 of 4): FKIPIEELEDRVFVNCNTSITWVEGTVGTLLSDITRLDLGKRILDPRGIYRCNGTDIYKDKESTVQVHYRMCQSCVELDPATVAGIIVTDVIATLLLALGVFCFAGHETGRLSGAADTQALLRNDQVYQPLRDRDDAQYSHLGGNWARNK
T1 sequence (P20963 22-164, chain 4 of 4): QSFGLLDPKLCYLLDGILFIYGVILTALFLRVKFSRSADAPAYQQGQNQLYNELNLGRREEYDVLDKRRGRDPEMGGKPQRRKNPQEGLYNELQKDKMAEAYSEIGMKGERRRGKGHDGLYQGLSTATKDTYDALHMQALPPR

Cytokine Release Assay (IL2) Donor 0 EC50 | Cytokine Release Assay (IL2) Donor 0 gMFI max | Cytokine Release Assay (IL2) Donor 1 EC50 | Cytokine Release Assay (IL2) Donor 1 gMFI max | Cytokine Release Assay (IL2) Donor 2 EC50 | Cytokine Release Assay (IL2) Donor 2 gMFI max | Cytokine Release Assay (IL2) Donor 3 EC50 | Cytokine Release Assay (IL2) Donor 3 gMFI max | Binder
0.121 nM | 33000 gMFI | 0.442 nM | 23100 gMFI | 0.222 nM | 32600 gMFI | 0.0926 nM | 49700 gMFI | B1
0.0887 nM | 69600 gMFI | 0.0832 nM | 24300 gMFI | 0.0612 nM | 30000 gMFI | – | 79300 gMFI | B2
4.13 nM | 34400 gMFI | 4.24 nM | 18800 gMFI | 6.46 nM | 22100 gMFI | 3.52 nM | 42100 gMFI | B3
– | 13600 gMFI | 3.58 nM | 14800 gMFI | – | 12500 gMFI | 1.47 nM | 13900 gMFI | B4

target: T1, CD3 on human donor PBMC / Pan T …; assay: cell-based or functional assay; remark: another data set of the same source

Cytokine Release Assay (TNFα) Donor 0 EC50 | Cytokine Release Assay (TNFα) Donor 0 gMFI max | Cytokine Release Assay (TNFα) Donor 1 EC50 | Cytokine Release Assay (TNFα) Donor 1 gMFI max | Cytokine Release Assay (TNFα) Donor 2 EC50 | Cytokine Release Assay (TNFα) Donor 2 gMFI max | Cytokine Release Assay (TNFα) Donor 3 EC50 | Cytokine Release Assay (TNFα) Donor 3 gMFI max | Binder
0.114 nM | 44800 gMFI | 0.647 nM | 5490 gMFI | 0.0497 nM | 18400 gMFI | 0.0635 nM | 26600 gMFI | B1
0.136 nM | 61700 gMFI | – | 5330 gMFI | 0.0788 nM | 16000 gMFI | 0.0724 nM | 32800 gMFI | B2
2.15 nM | 34100 gMFI | – | 4900 gMFI | 2.19 nM | 10900 gMFI | 5.58 nM | 25200 gMFI | B3
– | 5150 gMFI | – | 4670 gMFI | – | 4420 gMFI | – | 4110 gMFI | B4
